Test results reported in patent US20190269784A1, “Selective Inhibitors of the Polo-Like Kinase 1 Polo-Box Domain” (UNIVERSITY OF SOUTH CAROLINA, priority 2018, published 2019).
Several values for one entry are separate records, joined by “and”; a condition that tells them apart may be missing. Equal values may be shown once. Read-outs that look alike come from different tables or passages of the source. Blank lines part the entries; values can stand above or below the molecule they belong to. Square brackets hold non-standard residues; d marks the D form. Ends that are not written are not given here. Peptide text beside a SMILES is read from it. * marks the point of attachment. Benzoyl(4-octyl) = CCCCCCCCc1ccc(C(=O)*)cc1; pT = C[C@@H](OP(=O)(O)O)[C@H](N)C(=O)O; X2 = O=C(c1ccc(OCc2ccc(F)cc2)cc1)*; Benzoyl(4-OH) = O=C(c1ccc(O)cc1)*

Experiments:
[1] = target: polo-box domain (PBD) of polo-like kinase 1 (PLK1) (UniProt P53350); experiment: from FP IC50s; PLK1 PBD against PLK3 PBD
polo-box domain (PBD) of polo-like kinase 1 (PLK1) (UniProt P53350), sequence (P53350 367-603 limits assumed): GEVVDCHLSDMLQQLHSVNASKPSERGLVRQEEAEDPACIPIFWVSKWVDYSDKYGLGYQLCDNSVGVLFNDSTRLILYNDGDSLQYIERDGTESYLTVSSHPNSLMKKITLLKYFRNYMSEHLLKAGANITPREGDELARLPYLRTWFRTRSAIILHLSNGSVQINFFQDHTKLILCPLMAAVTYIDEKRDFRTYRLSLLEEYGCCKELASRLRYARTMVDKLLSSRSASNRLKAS

[2] = target: polo-box domain (PBD) of polo-like kinase 1 (PLK1) (UniProt P53350); experiment: fluorescence polarization competition, displacement of tracer peptide from PLK1 PBD
[3] = target: polo-box domain (PBD) of polo-like kinase 1 (PLK1) (UniProt P53350); experiment: fluorescence polarization competition on PLK1 PBD
PLK1 PBD = PLK1 PBD (Homo sapiens, UniProt P53350); experiment: Fluorescence polarization competitive binding assay, PLK1 PBD; conditions: for Selectivity Index: (IC50 PLK3 PBD/IC50 PLK1 PBD)×5, PLK1 over PLK3
PLK1 PBD, sequence (P53350 367-603 limits assumed): as above
Procedure: (§1) According to the assay, binding of a fluorescent tracer peptide to a protein increased polarization of the emitted fluorescence. […] The ability of test molecules to bind to the PBD was quantitated by a reduction in mP values that occurred as the tracer was displaced from the PBD, and plotted to calculate as an IC50 value.
(§2) The affinities of the peptides for PLK1 and PLK3 were measured by plotting the loss of polarization against increasing concentration of competitor peptide through use of an optimized assay and selectivity determination.

PLK3 PBD = target: T1, PLK3 PBD (Homo sapiens, UniProt Q9H4B4); experiment: Fluorescence polarization competitive binding assay, PLK3 PBD; conditions: for PLK3 PBD binding, in words: FP assay
T1 construct: A similar assay format was developed for the PLK3 PBD
T1 sequence (Q9H4B4 335-646 limits assumed): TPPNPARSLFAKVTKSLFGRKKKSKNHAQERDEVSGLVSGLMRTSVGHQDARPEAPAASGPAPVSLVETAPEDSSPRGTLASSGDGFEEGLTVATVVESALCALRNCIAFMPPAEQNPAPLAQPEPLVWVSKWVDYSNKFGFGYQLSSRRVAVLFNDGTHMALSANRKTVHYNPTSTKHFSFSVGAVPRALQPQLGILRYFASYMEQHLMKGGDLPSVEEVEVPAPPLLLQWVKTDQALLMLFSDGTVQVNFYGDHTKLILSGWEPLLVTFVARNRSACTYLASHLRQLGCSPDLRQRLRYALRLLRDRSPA
Procedure: The binding of fluorescein-labelled tracer peptides used for both assays was determined to see if there was a difference in affinity for their respective PBD. A titration curve for each tracer/PLK PBD complex was generated to determine Kd values for each and therefore compare the relative binding affinities.
as §2

[4] = target: polo-box domain (PBD) of polo-like kinase 1 (PLK1) (UniProt P53350); experiment: from FP IC50s, (IC50 PLK3 PBD/IC50 PLK1 PBD)x5; PLK1 PBD against PLK3 PBD
[5] = target: polo-box domain (PBD) of polo-like kinase 3 (PLK3) (UniProt Q9H4B4); experiment: fluorescence polarization competition, displacement of tracer peptide from PLK3 PBD
[6] = target: polo-like kinase 1 (PLK1), wild type, in cells (UniProt P53350 2-603, limits assumed); experiment: cell-based or functional assay
polo-like kinase 1 (PLK1), wild type, in cells, sequence (P53350 2-603 limits assumed): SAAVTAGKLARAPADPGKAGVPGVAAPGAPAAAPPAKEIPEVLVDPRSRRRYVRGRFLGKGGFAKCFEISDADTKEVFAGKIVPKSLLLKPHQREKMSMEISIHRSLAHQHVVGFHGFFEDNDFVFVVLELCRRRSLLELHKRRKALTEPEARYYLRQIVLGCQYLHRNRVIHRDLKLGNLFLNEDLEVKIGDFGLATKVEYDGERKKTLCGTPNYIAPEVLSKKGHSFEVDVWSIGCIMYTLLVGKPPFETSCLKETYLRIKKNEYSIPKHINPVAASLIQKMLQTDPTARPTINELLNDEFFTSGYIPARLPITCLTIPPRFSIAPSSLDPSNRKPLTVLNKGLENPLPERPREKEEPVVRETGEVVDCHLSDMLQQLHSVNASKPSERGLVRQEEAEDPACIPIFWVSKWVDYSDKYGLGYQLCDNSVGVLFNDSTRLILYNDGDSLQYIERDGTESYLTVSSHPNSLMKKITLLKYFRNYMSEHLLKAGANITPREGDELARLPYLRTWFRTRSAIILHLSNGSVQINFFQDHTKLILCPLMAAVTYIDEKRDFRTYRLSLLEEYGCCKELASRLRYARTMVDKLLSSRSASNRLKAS

[7] = target: T2, polo-box domain (PBD) of polo-like kinase 1 (PLK1) (UniProt P53350 367-603, limits assumed); experiment: fluorescence polarization competition, displacement of tracer peptide from PLK1 PBD
T2 construct: domain: polo-box domain (PBD); the background speaks of the four known human PLKs and the residue numbers (L491) fit human PLK1; also called PLK1 PBD; PBD of PLK1
T2 sequence (P53350 367-603 limits assumed): as the sequence (P53350 367-603 limits assumed) above
Source text: as §1, with “IC₅₀” for “IC50”

[8] = PLK3 PBD FP IC50, competition with fluorescent tracer peptide
[9] = competition with fluorescent tracer peptide, read-out: PLK3 PBD FP IC50
[10] = competition with fluorescent tracer peptide, read-out: PLK1 PBD FP IC50

- Selectivity Index [1]: > 1200
- IC50 [2]: 2.5 µM
- fold potency increase against Compound #9 [3]: 2 fold
Molecule: 4-butyl benzamide FLIP, 4-butyl S[pT]PNGL (SEQ ID NO: 11) (peptide)

Molecule: CC(C)C[C@H](NC(=O)CNC(=O)[C@H](CC(N)=O)NC(=O)[C@@H]1CCCN1C(=O)[C@@H](NC(=O)[C@H](CO)NC(=O)c1ccc(O)cc1)[C@@H](C)OP(=O)(O)O)C(=O)O [Compound 1] ({Benzoyl(4-OH)}-S[pT]PNGL-OH)
- PLK1 PBD binding, in words (PLK1 PBD; FP assay): completely inactive

Molecule: CC(C)C[C@H](NC(=O)CNC(=O)[C@H](CC(N)=O)NC(=O)[C@@H]1CCCN1C(=O)[C@@H](NC(=O)[C@H](CO)NC(=O)c1ccc(OCc2ccc(F)cc2)cc1)[C@@H](C)OP(=O)(O)O)C(=O)O [Compound 5] (X2-S[pT]PNGL-OH; C-terminus assumed)
- IC50 (PLK1 PBD): 5 µM
- fold reduction of PLK1 PBD binding relative to parent compound (PLK1 PBD): ~24 fold

Molecule: CCCCCCCCc1ccc(C(=O)N[C@@H](CO)C(=O)N[C@H](C(=O)N2CCC[C@H]2C(=O)N[C@@H](CC(N)=O)C(=O)NCC(=O)N[C@@H](CC(C)C)C(=O)O)[C@@H](C)OP(=O)(O)O)cc1 [Compound 13] ({Benzoyl(4-octyl)}-S[pT]PNGL-OH; C-terminus assumed)
- IC50 (PLK3 PBD; [8]): 149 ± 38.2 µM

Molecule: CCCCCCCCc1ccc(C(=O)N[C@@H](CO)C(=O)N[C@H](C(=O)N[C@@H](C)C(=O)O)[C@@H](C)OP(=O)(O)O)cc1 [Compound 14]
- fold reduction of PLK1 PBD binding relative to parent compound (PLK1 PBD): ~40 fold
- Selectivity Index (PLK1 PBD): 66
- IC50 (PLK3 PBD; [9]): 202 ± 51.3 µM

Molecule: CC(C)C[C@H](NC(=O)CNC(=O)[C@H](CC(N)=O)NC(=O)[C@@H]1CCCN1C(=O)[C@@H](NC(=O)[C@H](CO)NC(=O)[C@H](CS)NC(=O)[C@H](CC(C)C)NC(=O)[C@@H](N)CC(C)C)[C@@H](C)OP(=O)(O)O)C(=O)O [SEQ ID NO: 1, LLCS[pT]PNGL, reference compound] (H-LLCS[pT]PNGL-OH; N-terminus and C-terminus assumed)
- PLK3 PBD binding, in words (PLK3 PBD): no PLK3 PBD binding apparent at the maximum concentration tested

Molecule: CC(C)C[C@H](NC(=O)CNC(=O)[C@H](CC(N)=O)NC(=O)[C@@H]1CCCN1C(=O)[C@@H](NC(=O)[C@H](CO)NC(=O)[C@H](CS)NC(=O)[C@H](CC(C)C)NC(=O)[C@@H](N)CC(C)C)[C@@H](C)O)C(=O)O [SEQ ID NO: 2, reference compound] (H-LLCSTPNGL-OH)
- IC50 (PLK1 PBD): > 600 µM

Molecule: CC(=O)N1CCC[C@H]1C(=O)N[C@@H](CC(C)C)C(=O)N[C@@H](Cc1c[nH]cn1)C(=O)N[C@@H](CO)C(=O)N[C@H](C(=O)N1CCC[C@H]1C(=O)N[C@@H](CC(N)=O)C(=O)NCC(=O)N[C@@H](CC(C)C)C(=O)O)[C@@H](C)OP(=O)(O)O [SEQ ID NO: 3, Ac-PLHS[pT]PNGL] (Ac-PLHS[pT]PNGL-OH; C-terminus assumed)
- Selectivity Index (PLK1 PBD): 13,633
- IC50 (PLK1 PBD; [10]): 0.06 µM
- IC50 (PLK3 PBD; [9]): 164 µM

Molecule: CC[C@H](C)[C@H](NC(=O)[C@H](C)NC(=O)[C@@H](NC(=O)[C@H](CO)NC(=O)[C@H](Cc1c[nH]cn1)NC(=O)[C@H](CC(C)C)NC(=O)[C@@H]1CCCN1C(C)=O)[C@@H](C)OP(=O)(O)O)C(=O)O [SEQ ID NO: 4, Ac-PLHS[pT]Al] (Ac-PLHS[pT]AI-OH; C-terminus assumed)
- Selectivity Index (PLK1 PBD): 21,133
- IC50 (PLK1 PBD; [10]): 0.064 µM
- IC50 (PLK3 PBD; [9]): 270 µM

Molecule: CC[C@H](C)[C@H](NC(=O)[C@H](C)NC(=O)[C@@H](NC(=O)[C@H](CO)NC(=O)[C@H](Cc1c[nH]cn1)NC(=O)[C@H](CC(C)C)NC(C)=O)[C@@H](C)OP(=O)(O)O)C(=O)O [SEQ ID NO: 5, Ac-LHS[pT]Al] (Ac-LHS[pT]AI-OH; C-terminus assumed)
- IC50 (PLK1 PBD): 1.57 µM
- Selectivity Index (PLK1 PBD): >1900
- PLK3 PBD binding, in words (PLK3 PBD): lost all detectable affinity
- IC50 (PLK3 PBD; [8]): > 600 µM

Molecule: CC(C)C[C@H](NC(=O)[C@@H]1CCCN1C(=O)CN)C(=O)N[C@@H](C)C(=O)N[C@H](C(=O)N[C@@H](CO)C(=O)N[C@H](C(=O)N1CCC[C@H]1C(=O)N[C@@H](CCCCN)C(=O)N[C@@H](CC(N)=O)C(=O)NCC(=O)O)[C@@H](C)OP(=O)(O)O)[C@@H](C)O [SEQ ID NO: 7, GPLATS[pT]PKNG, reference compound] (H-GPLATS[pT]PKNG-OH; N-terminus and C-terminus assumed)
- IC50 (PLK1 PBD): 0.0057 µM
- Selectivity Index (PLK1 PBD): ~2000 and 1928
- IC50 (PLK3 PBD; [8]): 2.2 µM

Molecule: CC(C)C[C@H](NC(=O)CNC(=O)[C@H](CC(N)=O)NC(=O)[C@@H]1CCCN1C(=O)[C@@H](NC(=O)[C@H](CO)NC(=O)[C@@H](NC(=O)[C@H](C)NC(=O)[C@H](CC(C)C)NC(=O)[C@@H]1CCCN1C(=O)CN)[C@@H](C)O)[C@@H](C)OP(=O)(O)O)C(=O)O [SEQ ID NO: 8, GPLATS[pT]PNGL] (H-GPLATS[pT]PNGL-OH; N-terminus and C-terminus assumed)
- IC50 (PLK1 PBD): 0.011 µM
- fold reduction of PLK1 PBD binding relative to parent compound (PLK1 PBD): 2 fold
- Selectivity Index (PLK1 PBD): 2864
- fold reduction of PLK3 PBD binding relative to parent compound (PLK3 PBD): 3 fold
- IC50 (PLK3 PBD; [8]): 6.3 µM

Molecule: CC(=O)N1CCC[C@H]1C(=O)N[C@@H](CC(C)C)C(=O)N[C@@H](Cc1c[nH]cn1)C(=O)N[C@@H](CO)C(=O)N[C@H](C(=O)N1CCC[C@H]1C(=O)N[C@@H](CCCCN)C(=O)N[C@@H](CC(N)=O)C(=O)NCC(=O)O)[C@@H](C)OP(=O)(O)O [SEQ ID NO: 9, Ac-PLHS[pT]PKNG] (Ac-PLHS[pT]PKNG-OH; C-terminus assumed)
- Selectivity Index (PLK1 PBD): 20,906
- IC50 (PLK1 PBD; [10]): 0.032 µM
- IC50 (PLK3 PBD; [9]): 134 µM

- Selectivity Index [4]: > 6500
- IC50 [2]: 0.46 µM
- fold reduction in binding against SEQ ID NO: 4 [3]: 7 fold
Molecule: Ac-PLHS[pT]A (SEQ ID NO: 6)

- Selectivity Index [4]: 21100
Molecule: Ac-PLHS[pT]AI (SEQ ID NO: 4)

- Selectivity Index [4]: 20900
- fold weakened affinity against SEQ ID NO: 8 [3]: 2 fold
Molecule: Ac-PLHS[pT]PKNG (SEQ ID NO: 9)

- Selectivity Index [4]: 13600
- fold increase against SEQ ID NO: 1 [3]: 3 fold
Molecule: Ac-PLHS[pT]PNGL (SEQ ID NO: 3)

- Selectivity Index [1]: > 2830
- IC50 [2]: 1 µM
Molecule: Compound No. 12, 4-hexyl S[pT]PNGL (SEQ ID NO: 11) (peptide)

- Selectivity Index [1]: 2070
- IC50 [2]: 0.36 µM
Molecule: Compound No. 13, 4-octyl S[pT]PNGL (SEQ ID NO: 11) (peptide)

- Selectivity Index [1]: 66
- IC50 [2]: 15.2 µM
- fold weaker affinity against Compound No. 15 [3]: 40 fold
Molecule: Compound No. 14, 4-octyl S[pT]A (SEQ ID NO: 12) (peptide)

- Selectivity Index [4]: 1930
Molecule: GPLATS[pT]PKNG (SEQ ID NO: 7)

- IC50 [5]: 153 µM
- MTT IC50 [µM] A549 [6]: 79.5 µM
- MTT IC50 [µM] HeLa [6]: 128 µM
- MTT IC50 [µM] PC-3 [6]: 55.7 µM
- Selectivity Index [1]: 1860
- IC50 [2]: 0.41 µM
Molecule: {Benzoyl(4-octyl)}-S[pT]AI [Compound No. 15, 4-octylbenzamide N-capped S[pT]AI (SEQ ID NO: 13)]

- IC50 [7]: 11.2 µM
Molecule: {4‑(methylamino)benzoyl}-S[pT]PNGL (also: further groups not given here, see m14; also called Compound No. 8) [Compound #8, methylamino FLIP (R1 = NCH3)]

- Selectivity Index [4]: > 1900
- fold loss of binding against SEQ ID NO: 4 [3]: 24 fold
Molecule: Ac-LHS[pT]AI [Ac-LHS[pT]AI (SEQ ID NO: 5)]

- IC50 [7]: 4.5 µM
Molecule: {4‑phenethoxybenzoyl}-S[pT]PNGL (also: further groups not given here, see m14; also called Compound No. 6) [Compound #6, 4-phenethoxy FLIP (R1 = OCH2CH2C6H5)]

- IC50 [7]: 21.9 µM
Molecule: {4‑methoxybenzoyl}-S[pT]PNGL (also: further groups not given here, see m14; also called Compound No. 2) [Compound #2, methoxy derivative FLIP (R1 = OCH3)]

- IC50 [7]: 3 µM
Molecule: {4‑(methylthio)benzoyl}-S[pT]PNGL (also: further groups not given here, see m14; also called Compound No. 7) [Compound #7, thiomethyl FLIP (R1 = SCH3)]

- IC50 [7]: 15.9 µM
Molecule: {4‑ethoxybenzoyl}-S[pT]PNGL (also: further groups not given here, see m14; also called Compound No. 3) [Compound #3 FLIP (R1 = OCH2CH3)]
